Laboratory results reported in patent US20180022780A1 (Bayer, published 2018).
Bridge positions count the residues as written; N and C are the ends. Square brackets hold non-standard residues; d marks the D form. Ends that are not written are not given here. * marks the point of attachment. Palmitoyl = CCCCCCCCCCCCCCCC(=O)*; NMeK = CN[C@@H](CCCCN)C(=O)O; Orn = NCCC[C@H](N)C(=O)O; Dab = NCC[C@H](N)C(=O)O; Dap = NC[C@H](N)C(=O)O

Experiments:
[1] = target: CLR fused to EYFP with RAMP2 fused to ECFP; assay: cell-based or functional assay
[2] = target: human adrenomedullin-receptor (human, UniProt Q16602 23-461); assay: cell-based or functional assay
Chain of human adrenomedullin-receptor (Q16602 23-461): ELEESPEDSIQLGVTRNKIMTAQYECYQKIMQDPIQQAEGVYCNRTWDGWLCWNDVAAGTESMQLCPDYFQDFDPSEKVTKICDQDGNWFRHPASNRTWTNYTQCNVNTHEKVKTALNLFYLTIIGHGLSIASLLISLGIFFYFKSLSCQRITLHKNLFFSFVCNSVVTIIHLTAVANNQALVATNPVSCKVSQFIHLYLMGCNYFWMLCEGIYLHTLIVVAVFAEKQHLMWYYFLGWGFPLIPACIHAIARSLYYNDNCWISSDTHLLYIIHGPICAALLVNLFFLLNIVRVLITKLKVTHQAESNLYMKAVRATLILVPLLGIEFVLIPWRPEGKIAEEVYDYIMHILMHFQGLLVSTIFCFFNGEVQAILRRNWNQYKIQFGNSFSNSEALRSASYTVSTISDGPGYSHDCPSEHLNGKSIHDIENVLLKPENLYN

Chain of CLR fused to EYFP with RAMP2 fused to ECFP (Q16602 whole entry, chain 1 of 2, the tested form may be a part): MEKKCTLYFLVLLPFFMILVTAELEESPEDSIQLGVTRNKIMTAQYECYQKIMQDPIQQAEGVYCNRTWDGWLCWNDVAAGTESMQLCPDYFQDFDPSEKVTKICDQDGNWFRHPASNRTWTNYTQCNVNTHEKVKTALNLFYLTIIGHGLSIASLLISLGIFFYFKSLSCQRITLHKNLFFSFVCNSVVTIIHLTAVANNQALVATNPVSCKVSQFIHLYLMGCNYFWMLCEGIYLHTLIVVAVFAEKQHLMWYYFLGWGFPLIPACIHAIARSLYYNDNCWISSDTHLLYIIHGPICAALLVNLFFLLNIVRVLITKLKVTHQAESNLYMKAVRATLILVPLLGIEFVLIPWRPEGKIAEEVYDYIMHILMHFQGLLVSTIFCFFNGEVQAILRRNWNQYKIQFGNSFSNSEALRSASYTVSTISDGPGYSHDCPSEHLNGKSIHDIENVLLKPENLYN
Chain of CLR fused to EYFP with RAMP2 fused to ECFP (O60895 whole entry, chain 2 of 2, further chain, the tested form may be a part): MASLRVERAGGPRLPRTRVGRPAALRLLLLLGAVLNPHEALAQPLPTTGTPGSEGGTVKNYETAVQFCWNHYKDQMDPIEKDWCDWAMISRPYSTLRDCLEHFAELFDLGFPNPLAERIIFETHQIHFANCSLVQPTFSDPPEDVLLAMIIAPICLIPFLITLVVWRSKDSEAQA

Binder	EC50 [nM], cAMP assay (CRE-luciferase luminescence, HEK293 cells) [1] [nM]	EC50 [nM], aequorin luminescence of CHO adrenomedullin-receptor reporter cells [2] [nM]
K(Palmitoyl)G[Dap]RFGTETVQKLAHQIYQFTDKDKDNVAPRSKISPQGY-NH2 (lactam 3-8; also: acetate salt) [[K^14(PAM), (Dpr^16, E^21)lac]ADM(14-52)]	2	22
K(Palmitoyl)G[Dap]RFGTETVQKLAHQIYQFTDKDKDNVAPRS[NMeK]ISPQGY-NH2 (lactam 3-8; N-terminus assumed; SMILES CCCCCCCCCCCCCCCC(=O)NCCCC[C@H](N)C(=O)NCC(=O)N[C@H]1CNC(=O)CC[C@@H](C(=O)N[C@H](C(=O)N[C@H](C(=O)N[C@@H](CCC(N)=O)C(=O)N[C@@H](CCCCN)C(=O)N[C@@H](CC(C)C)C(=O)N[C@@H](C)C(=O)N[C@@H](Cc2c[nH]cn2)C(=O)N[C@@H](CCC(N)=O)C(=O)N[C@H](C(=O)N[C@@H](Cc2ccc(O)cc2)C(=O)N[C@@H](CCC(N)=O)C(=O)N[C@@H](Cc2ccccc2)C(=O)N[C@H](C(=O)N[C@@H](CC(=O)O)C(=O)N[C@@H](CCCCN)C(=O)N[C@@H](CC(=O)O)C(=O)N[C@@H](CCCCN)C(=O)N[C@@H](CC(=O)O)C(=O)N[C@@H](CC(N)=O)C(=O)N[C@H](C(=O)N[C@@H](C)C(=O)N2CCC[C@H]2C(=O)N[C@@H](CCCNC(=N)N)C(=O)N[C@@H](CO)C(=O)N(C)[C@@H](CCCCN)C(=O)N[C@H](C(=O)N[C@@H](CO)C(=O)N2CCC[C@H]2C(=O)N[C@@H](CCC(N)=O)C(=O)NCC(=O)N[C@@H](Cc2ccc(O)cc2)C(N)=O)[C@@H](C)CC)C(C)C)[C@@H](C)O)[C@@H](C)CC)C(C)C)[C@@H](C)O)NC(=O)[C@H]([C@@H](C)O)NC(=O)CNC(=O)[C@H](Cc2ccccc2)NC(=O)[C@H](CCCNC(=N)N)NC1=O) [[K^14(PAM), (Dpr^16,E^21)lac, N-Me-K^46]ADM(14-52)]	3.4	56
GG[Dap]RFGTDTVQKLAHQIYQFTDKDKDNVAPRSKISPQGY-NH2 (lactam 3-8; N-terminus assumed; SMILES CC[C@H](C)[C@H](NC(=O)[C@H](CCC(N)=O)NC(=O)[C@H](Cc1c[nH]cn1)NC(=O)[C@H](C)NC(=O)[C@H](CC(C)C)NC(=O)[C@H](CCCCN)NC(=O)[C@H](CCC(N)=O)NC(=O)[C@@H](NC(=O)[C@@H](NC(=O)[C@@H]1CC(=O)NC[C@H](NC(=O)CNC(=O)CN)C(=O)N[C@@H](CCCNC(=N)N)C(=O)N[C@@H](Cc2ccccc2)C(=O)NCC(=O)N[C@@H]([C@@H](C)O)C(=O)N1)[C@@H](C)O)C(C)C)C(=O)N[C@@H](Cc1ccc(O)cc1)C(=O)N[C@@H](CCC(N)=O)C(=O)N[C@@H](Cc1ccccc1)C(=O)N[C@H](C(=O)N[C@@H](CC(=O)O)C(=O)N[C@@H](CCCCN)C(=O)N[C@@H](CC(=O)O)C(=O)N[C@@H](CCCCN)C(=O)N[C@@H](CC(=O)O)C(=O)N[C@@H](CC(N)=O)C(=O)N[C@H](C(=O)N[C@@H](C)C(=O)N1CCC[C@H]1C(=O)N[C@@H](CCCNC(=N)N)C(=O)N[C@@H](CO)C(=O)N[C@@H](CCCCN)C(=O)N[C@H](C(=O)N[C@@H](CO)C(=O)N1CCC[C@H]1C(=O)N[C@@H](CCC(N)=O)C(=O)NCC(=O)N[C@@H](Cc1ccc(O)cc1)C(N)=O)[C@@H](C)CC)C(C)C)[C@@H](C)O) [[G^14, (Dpr^16, D^21)lac]ADM(14-52)]	67	49.6
GGXRFGTCTVQKLAHQIYQFTDKDKDNVAPRSKISPQGY (positions 16 and 21 (residues 3 and 8 of the letters) together are cystathionine (U^16→C^21, thioether disulfide bond mimetic); X stands for the printed U at 16; C-terminal amide) [[G^14, (U^16→C^21)]ADM(14-52)]	6.8	1.54
GGXRFGTXTVQKLAHQIYQFTDKDKDNVAPRSKISPQGY (positions 16 and 21 (residues 3 and 8 of the letters) together are 2,7-diaminosuberic acid (U^16→U^21, biscarba disulfide bond mimetic); X stands for the printed U; C-terminal amide) [[G^14, (U^16→U^21)]ADM(14-52)]	> 1000	> 1000
GGCRFGTXTVQKLAHQIYQFTDKDKDNVAPRSKISPQGY (palmitic acid (PAM) on the N-terminus (G14); positions 16 and 21 (residues 3 and 8 of the letters) together are cystathionine (C^16→U^21, thioether); X stands for the printed U at 21; C-terminal …) [PAM[G^14, (C^16→U^21)]ADM(14-52)]	16.9	15
GGKRFGTETVQKLAHQIYQFTDKDKDNVAPRSKISPQGY-NH2 (lactam 3-8; N-terminus assumed; SMILES CC[C@H](C)[C@H](NC(=O)[C@H](CCC(N)=O)NC(=O)[C@H](Cc1c[nH]cn1)NC(=O)[C@H](C)NC(=O)[C@H](CC(C)C)NC(=O)[C@H](CCCCN)NC(=O)[C@H](CCC(N)=O)NC(=O)[C@@H](NC(=O)[C@@H](NC(=O)[C@@H]1CCC(=O)NCCCC[C@H](NC(=O)CNC(=O)CN)C(=O)N[C@@H](CCCNC(=N)N)C(=O)N[C@@H](Cc2ccccc2)C(=O)NCC(=O)N[C@@H]([C@@H](C)O)C(=O)N1)[C@@H](C)O)C(C)C)C(=O)N[C@@H](Cc1ccc(O)cc1)C(=O)N[C@@H](CCC(N)=O)C(=O)N[C@@H](Cc1ccccc1)C(=O)N[C@H](C(=O)N[C@@H](CC(=O)O)C(=O)N[C@@H](CCCCN)C(=O)N[C@@H](CC(=O)O)C(=O)N[C@@H](CCCCN)C(=O)N[C@@H](CC(=O)O)C(=O)N[C@@H](CC(N)=O)C(=O)N[C@H](C(=O)N[C@@H](C)C(=O)N1CCC[C@H]1C(=O)N[C@@H](CCCNC(=N)N)C(=O)N[C@@H](CO)C(=O)N[C@@H](CCCCN)C(=O)N[C@H](C(=O)N[C@@H](CO)C(=O)N1CCC[C@H]1C(=O)N[C@@H](CCC(N)=O)C(=O)NCC(=O)N[C@@H](Cc1ccc(O)cc1)C(N)=O)[C@@H](C)CC)C(C)C)[C@@H](C)O) [[G^14, (K^16, E^21)lac]ADM(14-52)]	> 1000	> 1000
GGKRFGTDTVQKLAHQIYQFTDKDKDNVAPRSKISPQGY-NH2 (lactam 3-8; N-terminus assumed; SMILES CC[C@H](C)[C@H](NC(=O)[C@H](CCC(N)=O)NC(=O)[C@H](Cc1c[nH]cn1)NC(=O)[C@H](C)NC(=O)[C@H](CC(C)C)NC(=O)[C@H](CCCCN)NC(=O)[C@H](CCC(N)=O)NC(=O)[C@@H](NC(=O)[C@@H](NC(=O)[C@@H]1CC(=O)NCCCC[C@H](NC(=O)CNC(=O)CN)C(=O)N[C@@H](CCCNC(=N)N)C(=O)N[C@@H](Cc2ccccc2)C(=O)NCC(=O)N[C@@H]([C@@H](C)O)C(=O)N1)[C@@H](C)O)C(C)C)C(=O)N[C@@H](Cc1ccc(O)cc1)C(=O)N[C@@H](CCC(N)=O)C(=O)N[C@@H](Cc1ccccc1)C(=O)N[C@H](C(=O)N[C@@H](CC(=O)O)C(=O)N[C@@H](CCCCN)C(=O)N[C@@H](CC(=O)O)C(=O)N[C@@H](CCCCN)C(=O)N[C@@H](CC(=O)O)C(=O)N[C@@H](CC(N)=O)C(=O)N[C@H](C(=O)N[C@@H](C)C(=O)N1CCC[C@H]1C(=O)N[C@@H](CCCNC(=N)N)C(=O)N[C@@H](CO)C(=O)N[C@@H](CCCCN)C(=O)N[C@H](C(=O)N[C@@H](CO)C(=O)N1CCC[C@H]1C(=O)N[C@@H](CCC(N)=O)C(=O)NCC(=O)N[C@@H](Cc1ccc(O)cc1)C(N)=O)[C@@H](C)CC)C(C)C)[C@@H](C)O) [[G^14, (K^16, D^21)lac]ADM(14-52)]	> 1000	> 1000
GG[Orn]RFGTETVQKLAHQIYQFTDKDKDNVAPRSKISPQGY-NH2 (lactam 3-8; N-terminus assumed; SMILES CC[C@H](C)[C@H](NC(=O)[C@H](CCC(N)=O)NC(=O)[C@H](Cc1c[nH]cn1)NC(=O)[C@H](C)NC(=O)[C@H](CC(C)C)NC(=O)[C@H](CCCCN)NC(=O)[C@H](CCC(N)=O)NC(=O)[C@@H](NC(=O)[C@@H](NC(=O)[C@@H]1CCC(=O)NCCC[C@H](NC(=O)CNC(=O)CN)C(=O)N[C@@H](CCCNC(=N)N)C(=O)N[C@@H](Cc2ccccc2)C(=O)NCC(=O)N[C@@H]([C@@H](C)O)C(=O)N1)[C@@H](C)O)C(C)C)C(=O)N[C@@H](Cc1ccc(O)cc1)C(=O)N[C@@H](CCC(N)=O)C(=O)N[C@@H](Cc1ccccc1)C(=O)N[C@H](C(=O)N[C@@H](CC(=O)O)C(=O)N[C@@H](CCCCN)C(=O)N[C@@H](CC(=O)O)C(=O)N[C@@H](CCCCN)C(=O)N[C@@H](CC(=O)O)C(=O)N[C@@H](CC(N)=O)C(=O)N[C@H](C(=O)N[C@@H](C)C(=O)N1CCC[C@H]1C(=O)N[C@@H](CCCNC(=N)N)C(=O)N[C@@H](CO)C(=O)N[C@@H](CCCCN)C(=O)N[C@H](C(=O)N[C@@H](CO)C(=O)N1CCC[C@H]1C(=O)N[C@@H](CCC(N)=O)C(=O)NCC(=O)N[C@@H](Cc1ccc(O)cc1)C(N)=O)[C@@H](C)CC)C(C)C)[C@@H](C)O) [[G^14, (Orn^16, E^21)lac]ADM(14-52)]	9.1	27
GGDRFGT[Dab]TVQKLAHQIYQFTDKDKDNVAPRSKISPQGY-NH2 (lactam 3-8) [[G^14, (D^16, Dab^21)lac]ADM(14-52)]	21	21.1
GGERFGT[Orn]TVQKLAHQIYQFTDKDKDNVAPRSKISPQGY-NH2 (lactam 3-8) [[G^14, (E^16, Orn^21)lac]ADM(14-52)]	21	> 1000
GGDRFGT[Dap]TVQKLAHQIYQFTDKDKDNVAPRSKISPQGY-NH2 (lactam 3-8) [[G^14, (D^16, Dpr^21)lac]ADM(14-52)]	> 1000	32
GGDRFGTKTVQKLAHQIYQFTDKDKDNVAPRSKISPQGY-NH2 (lactam 3-8) [[G^14, (D^16, K^21)lac]ADM(14-52)]	2.3	15
